Square brackets hold non-standard residues; d marks the D form. Ends that are not written are not given here. Aib = CC(C)(N)C(=O)O
Target: human GLP-1 receptor (human, UniProt P43220 24-463)
Experiment: cell-based or functional assay

H[Aib]QGTFTSDLSKQLDEQRA[(S)MeLys]DFIEWLIAGGPSSGAPPPS-NH2 [SEQ ID NO: 14]
EC50 hGLP-1R (cAMP formation, HTRF, HEK-293 cells): 1 pM

From patent US20160168225A1 (Sanofi, published 2016)
